From publication PMC10397247

Columns and labels:
Test in all cases: two-hybrid library CCmax;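 note: natural log of median RNA to DNA barcode read ratio; higher means stronger binding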
[1] = molecular target: T1, 4H717-AA; details: mean of both orientations
T1 chain: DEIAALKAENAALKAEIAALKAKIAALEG

[2] = molecular target: T2, 4H2393-AA; details: mean of both orientations
T2 chain: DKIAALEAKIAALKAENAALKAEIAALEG

[3] = molecular target: T3, 4H906-AA; details: mean of both orientations
T3 chain: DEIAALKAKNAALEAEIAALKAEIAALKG

[4] = molecular target: T4, 4H2642-AA; details: mean of both orientations
T4 chain: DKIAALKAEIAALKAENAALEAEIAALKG

[5] = molecular target: T5, 4H993-AA; details: mean of both orientations
T5 chain: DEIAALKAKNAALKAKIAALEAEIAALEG

[6] = molecular target: T6, 4H2617-AA; details: mean of both orientations
T6 chain: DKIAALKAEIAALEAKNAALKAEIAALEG

[7] = molecular target: T7, 4H2505-AA; details: mean of both orientations
T7 chain: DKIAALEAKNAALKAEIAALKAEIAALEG

[8] = molecular target: T8, 4H454-AA; details: mean of both orientations
T8 chain: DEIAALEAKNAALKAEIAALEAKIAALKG

[9] = molecular target: T9, 4H2354-AA; details: mean of both orientations
T9 chain: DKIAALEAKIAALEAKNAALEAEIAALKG

[10] = molecular target: T10, 4H335-AA; details: mean of both orientations
T10 chain: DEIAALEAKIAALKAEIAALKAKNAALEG

[11] = molecular target: T11, 4H3112-AA; details: mean of both orientations
T11 chain: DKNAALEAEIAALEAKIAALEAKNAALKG

[12] = molecular target: T12, 4H2575-AA; details: mean of both orientations
T12 chain: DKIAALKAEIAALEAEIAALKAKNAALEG

[13] = molecular target: T13, 4H3427-AA; details: mean of both orientations
T13 chain: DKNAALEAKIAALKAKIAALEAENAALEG

[14] = molecular target: T14, 4H566-AA; details: mean of both orientations
T14 chain: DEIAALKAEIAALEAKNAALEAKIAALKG

[15] = molecular target: T15, 4H780-AA; details: mean of both orientations
T15 chain: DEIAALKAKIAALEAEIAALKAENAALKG

[16] = molecular target: T16, 4H429-AA; details: mean of both orientations
T16 chain: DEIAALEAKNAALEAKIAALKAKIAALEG

[17] = molecular target: T17, 4H3627-AA; details: mean of both orientations
T17 chain: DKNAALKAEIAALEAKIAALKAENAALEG

[18] = molecular target: T18, 4H249-AA
T18 chain: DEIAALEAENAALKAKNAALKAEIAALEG

[19] = molecular target: T19, 4H2165-AA; details: mean of both orientations
T19 chain: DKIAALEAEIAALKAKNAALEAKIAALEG

[20] = molecular target: T20, 4H48-AA; details: mean of both orientations
T20 chain: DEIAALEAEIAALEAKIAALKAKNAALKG

[21] = molecular target: T21, 4H3606-AA; details: mean of both orientations
T21 chain: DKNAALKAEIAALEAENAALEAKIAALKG

[22] = molecular target: T22, 4H678-AA; details: mean of both orientations
T22 chain: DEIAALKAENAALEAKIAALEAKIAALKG

[23] = molecular target: T23, 4H234-AA; details: mean of both orientations
T23 chain: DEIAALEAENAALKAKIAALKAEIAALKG

[24] = molecular target: T24, 4H881-AA; details: mean of both orientations
T24 chain: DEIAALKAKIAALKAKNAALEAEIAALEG

[25] = molecular target: T25, 4H2277-AA; details: mean of both orientations
T25 chain: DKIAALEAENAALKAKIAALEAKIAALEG

[26] = molecular target: T26, 4H2837-AA; details: mean of both orientations
T26 chain: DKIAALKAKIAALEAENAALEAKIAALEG

[27] = molecular target: T27, 4H342-AA; details: mean of both orientations
T27 chain: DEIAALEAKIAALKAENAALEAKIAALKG

[28] = molecular target: T28, 4H2078-AA
T28 chain: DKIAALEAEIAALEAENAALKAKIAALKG

[29] = molecular target: T29, 4H3343-AA; details: mean of both orientations
T29 chain: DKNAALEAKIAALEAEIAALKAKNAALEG

[30] = molecular target: T30, 4H2190-AA; details: mean of both orientations
T30 chain: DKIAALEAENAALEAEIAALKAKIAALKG

[31] = molecular target: T31, 4H2883-AA; details: mean of both orientations
T31 chain: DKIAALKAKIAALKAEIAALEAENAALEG

[32] = molecular target: T32, 4H794-AA; details: mean of both orientations
T32 chain: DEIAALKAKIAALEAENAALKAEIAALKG

[33] = molecular target: T33, 4H2754-AA; details: mean of both orientations
T33 chain: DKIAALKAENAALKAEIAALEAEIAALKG

[34] = molecular target: T34, 4H2466-AA; details: mean of both orientations
T34 chain: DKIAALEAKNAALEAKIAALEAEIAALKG

[35] = molecular target: T35, 4H2949-AA; details: mean of both orientations
T35 chain: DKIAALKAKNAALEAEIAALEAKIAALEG

[36] = molecular target: T36, 4H2944-AA; details: mean of both orientations
T36 chain: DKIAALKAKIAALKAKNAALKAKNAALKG

[37] = molecular target: T37, 4H2729-AA; details: mean of both orientations
T37 chain: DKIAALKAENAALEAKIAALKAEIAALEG

[38] = molecular target: T38, 4H317-AA; details: mean of both orientations
T38 chain: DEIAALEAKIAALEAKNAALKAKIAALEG

[39] = molecular target: T39, 4H2151-AA; details: mean of both orientations
T39 chain: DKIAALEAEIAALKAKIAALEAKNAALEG

[40] = molecular target: T40, 4H3844-AA; details: mean of both orientations
T40 chain: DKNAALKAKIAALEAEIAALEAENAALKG

[41] = molecular target: T41, 4H3655-AA
T41 chain: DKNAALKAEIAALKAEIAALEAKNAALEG

[42] = molecular target: T42, 4H605-AA; details: mean of both orientations
T42 chain: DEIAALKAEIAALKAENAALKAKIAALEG

[43] = molecular target: T43, 4H3921-AA; details: mean of both orientations
T43 chain: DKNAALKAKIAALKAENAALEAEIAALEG

For DKIAALEAEIAALEAENAALKAKIAALKG [4H2078-AA], the interaction score [1] was -1.62, the interaction score [2] was 2.47 and the interaction score [3] was -0.59. It also gave an interaction score [4] of 2.25, an interaction score [5] of -1.03 and an interaction score [6] of 2.35. The interaction score [7] was 1.62, the interaction score [8] was -0.599 and the interaction score [9] was -0.00435. The interaction score [10] was 0.35, the interaction score [11] was -0.952 and the interaction score [12] was -0.721. The interaction score [13] was -0.664, the interaction score [14] was -1.05 and the interaction score [15] was -1.14. The interaction score [16] was 1.79, the interaction score [17] was -0.14 and the interaction score [18] was 0.347. The interaction score [19] was 0.246, the interaction score [20] was 0.504 and the interaction score [21] was -0.297. For the same binder, the interaction score [22] was -0.466, the interaction score [23] was -0.505 and the interaction score [24] was 2.31. The interaction score [25] was -1.09, the interaction score [26] was 1.93 and the interaction score [27] was 2.14. It also gave an interaction score [28] of 1.98, an interaction score [29] of -1.08 and an interaction score [30] of 1.33. It also gave an interaction score [31] of 0.158, an interaction score [32] of 1.84 and an interaction score [33] of 0.637. For the same binder, the interaction score [34] was -0.982, the interaction score [35] was -1.02 and the interaction score [36] was 0.298. It also gave an interaction score [37] of 0.661, an interaction score [38] of 1.93 and an interaction score [39] of -1.39. It also gave an interaction score [40] of -0.801, an interaction score [41] of -1.22 and an interaction score [42] of 1.68. The interaction score [43] was 2.02.
